IntAct's records for PubMed 25860027

B1: Ras-related protein Rab-8A (Canis familiaris (dog)), P61007 (parent)
chain: MAKTYDYLFKLLLIGDSGVGKTCVLFRFSEDAFNSTFISTIGIDFKIRTIELDGKRIKLQIWDTAGQERFRTITTAYYRGAMGIMLVYDITNEKSFDNIRNWIRNIEEHASADVEKMILGNKCDVNDKRQVSKERGEKLALDYGIKFMETSAKANINVENAFFTLARDIKAKMDKKLEGNSPQGSNQGVKITPDQQKRSSFFRCVLL
partner: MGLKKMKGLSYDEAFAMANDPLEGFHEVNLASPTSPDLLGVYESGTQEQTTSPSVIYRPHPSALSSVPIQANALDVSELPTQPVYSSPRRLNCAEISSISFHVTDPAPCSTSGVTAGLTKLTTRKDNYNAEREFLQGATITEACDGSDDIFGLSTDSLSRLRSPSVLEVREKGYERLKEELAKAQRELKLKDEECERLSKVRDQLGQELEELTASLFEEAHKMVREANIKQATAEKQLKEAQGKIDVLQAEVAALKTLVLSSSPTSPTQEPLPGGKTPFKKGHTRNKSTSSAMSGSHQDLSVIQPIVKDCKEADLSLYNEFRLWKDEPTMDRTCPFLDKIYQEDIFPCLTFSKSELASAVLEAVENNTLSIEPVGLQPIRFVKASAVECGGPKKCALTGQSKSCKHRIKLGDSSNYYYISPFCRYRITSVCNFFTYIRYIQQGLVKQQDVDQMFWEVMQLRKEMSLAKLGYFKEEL
B2: Ras-related protein Rab-8A (Canis familiaris (dog)), P61007 (parent)
chain: B1 chain
partner: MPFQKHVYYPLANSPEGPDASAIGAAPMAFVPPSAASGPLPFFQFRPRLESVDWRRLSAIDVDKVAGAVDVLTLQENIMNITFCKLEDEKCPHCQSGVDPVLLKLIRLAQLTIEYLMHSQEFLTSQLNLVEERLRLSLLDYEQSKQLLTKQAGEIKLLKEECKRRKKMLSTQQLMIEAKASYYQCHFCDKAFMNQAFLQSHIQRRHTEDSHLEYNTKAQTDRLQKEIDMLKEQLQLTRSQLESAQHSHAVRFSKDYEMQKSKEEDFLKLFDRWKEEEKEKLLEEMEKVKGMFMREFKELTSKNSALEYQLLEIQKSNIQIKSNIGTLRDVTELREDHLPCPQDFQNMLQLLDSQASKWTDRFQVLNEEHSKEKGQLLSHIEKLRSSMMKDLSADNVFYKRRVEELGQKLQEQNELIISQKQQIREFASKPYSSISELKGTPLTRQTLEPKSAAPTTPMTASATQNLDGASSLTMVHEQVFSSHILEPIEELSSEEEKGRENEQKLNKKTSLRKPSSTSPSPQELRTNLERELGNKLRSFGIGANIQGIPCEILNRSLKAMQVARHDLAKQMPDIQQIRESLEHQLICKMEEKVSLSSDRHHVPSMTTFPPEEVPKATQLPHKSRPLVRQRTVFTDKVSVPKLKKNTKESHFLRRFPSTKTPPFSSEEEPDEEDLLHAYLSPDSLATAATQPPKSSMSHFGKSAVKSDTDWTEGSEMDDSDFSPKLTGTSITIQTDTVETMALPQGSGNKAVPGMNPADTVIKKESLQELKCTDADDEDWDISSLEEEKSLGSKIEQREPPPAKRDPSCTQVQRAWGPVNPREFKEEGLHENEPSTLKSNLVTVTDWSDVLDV

Variants of: B1
Settings: with rab3i_human RAB3IP

| Variant | effect of a mutation on the interaction |
| --- | --- |
| MAKTYDYLFKLLLIGDSGVGKNCVLFRFSEDAFNSTFISTIGIDFKIRTIELDGKRIKLQIWDTAGQERFRTITTAYYRGAMGIMLVYDITNEKSFDNIRNWIRNIEEHASADVEKMILGNKCDVNDKRQVSKERGEKLALDYGIKFMETSAKANINVENAFFTLARDIKAKMDKKLEGNSPQGSNQGVKITPDQQKRSSFFRCVLL [T22N] | increasing interaction strength |

Variants of: B2
Settings: with Dzip1, Q8BMD2-1

| Variant | effect of a mutation on the interaction |
| --- | --- |
| MAKTYDYLFKLLLIGDSGVGKTCVLFRFSEDAFNSTFISTIGIDFKIRTIELDGKRIKLQIWDTAGLERFRTITTAYYRGAMGIMLVYDITNEKSFDNIRNWIRNIEEHASADVEKMILGNKCDVNDKRQVSKERGEKLALDYGIKFMETSAKANINVENAFFTLARDIKAKMDKKLEGNSPQGSNQGVKITPDQQKRSSFFRCVLL [Q67L] | disrupting interaction strength |
| MAKTYDYLFKLLLIGDSGVGKNCVLFRFSEDAFNSTFISTIGIDFKIRTIELDGKRIKLQIWDTAGQERFRTITTAYYRGAMGIMLVYDITNEKSFDNIRNWIRNIEEHASADVEKMILGNKCDVNDKRQVSKERGEKLALDYGIKFMETSAKANINVENAFFTLARDIKAKMDKKLEGNSPQGSNQGVKITPDQQKRSSFFRCVLL [T22N] | increasing interaction strength |
